Laboratory results taken from US20230241072A1 (ALMAC DISCOVERY, published 2023).
Substitutions are numbered along the chain they refer to. In names and notes the source's numbering stands.

B1: P3A1 hFc(442) (Fc fusion)
chain: TRVDQTPRTATKETGESLTINCVLTDTSYGLYSTSWFRKNPGTTDWERMSIGGRYVESVNKGAKSFSLRIKDLTVADSATYYCKAREARHPWLRQWYDGAGTVLTVNGGGGSGGGGSGGGGS
notes: hIgG1 Fc with S442C (EU); also called P3A1hFc(S442C); not shown: human IgG1 Fc domain
B2: P3A1 hFc (Fc fusion)
chain: B1 chain
notes: VNAR fused to engineered hIgG1 Fc via [G4S]3; also called P3A1hFc(S239C); not shown: human IgG1 Fc domain
B3: 2V hFc (Fc fusion)
chain: B1 chain with R86Q, E87S, A88L, R89A, H90I, P91S, W92T, L93R, R94S, Q95Y
notes: Control VNAR from a naive library, no known target; not shown: human IgG1 Fc domain
B4: hFc - P3A1 (Fc fusion)
chain: GGGGSGGGGSGGGGSTRVDQTPRTATKETGESLTINCVLTDTSYGLYSTSWFRKNPGTTDWERMSIGGRYVESVNKGAKSFSLRIKDLTVADSATYYCKAREARHPWLRQWYDGAGTVLTVN
notes: VNAR at the C-terminus of the Fc, by the printed name; not shown: human IgG1 Fc domain
B5: B1V15 hFc (Fc fusion)
chain: ASVTQSPRSASKETGESLTITCRVTGANYGLAATYWYRKNPGSSNQERISISGRYSESVNKRTMSFSLRISSLTVEDSATYYCKAYPWGAGAPWLVQWYDGQGTKLEVKGGGGSGGGGSGGGGS
notes: Humanised B1 variant fused to hFc; not shown: human IgG1 Fc domain

Legend:
[1] = target: T1, human ROR1-hFc fusion protein (extracellular domain) (human, UniProt Q01973 30-406); assay: SPR (Pioneer) or BLI (Octet K2); ROR1-hFc extracellular domain amine-coupled
T1 construct: extracellular domain; Immobilised by amine coupling on COOH2 chips or AR2G sensors; also called hROR1; not shown: human Fc (hFc)
Experimental: (§1) VNARs were genetically fused to engineered hIgG1 Fc domains via standard [G₄S]₃ that contained a cysteine substitution in the hIgG1 Fc sequence, S239C (EU numbering). The VNAR Fc fusion proteins were expressed as secreted protein in CHO K1 cells and purified from the media using MabSelect™ SuRe™ (Evitria, Switzerland). Purified proteins were analysed by SEC (AdvanceBio, Agilent), SDS PAGE and mass spectrometry to confirm sequence and protein integrity. Binding kinetics were determined using a Pioneer Surface Plasmon Resonance (SPR) instrument (SensiQ/Pall ForteBio), or the Biolayer Interferometry (BLI) Octet K2 system (ForteBio). ROR1-hFc or ROR2-hFc fusion proteins (extracelluar domains) were immobilised in sodium acetate pH5 buffer to COOH₂ chips or AR2G sensors using amine coupling. VNARs and VNAR-Fc molecules were tested at various concentrations and the Ka (M⁻¹ s⁻¹), Kd (s⁻¹) and KD (nM) values were determined using QDat software (SensiQ/Pall ForteBio) or Octet Data Analysis High Throughput software (ForteBio) for Biolayer Interferometry.

[2] = target: T2, human ROR2-hFc fusion protein (extracellular domain) (human, UniProt Q01974 34-403); assay: SPR (Pioneer) or BLI (Octet K2); ROR2-hFc extracellular domain amine-coupled
T2 construct: extracellular domain; Immobilised by amine coupling; also called hROR2; not shown: human Fc (hFc)
Experimental: as §1

Binder	Kd [1]	koff [1]	kon [1]	binding result [2]	binding result [1]
B1	0.741 nM	0.0002 s⁻¹	270000 M⁻¹ s⁻¹	no binding	
B2		0.000564 s⁻¹		no binding	
B3				no binding	no binding
B4		0.000776 s⁻¹		no binding	
B5	0.726 nM	0.00013 s⁻¹	179000 M⁻¹ s⁻¹	no binding	
